Reference: patent US12173330B2, “Method for producing hydroxy-L-pipecolic acid” (API CORPORATION, priority 2015, dated 2024)

Tests used:
[1] = Reactivity comparison of L-pipecolic acid 5-hydroxylases, substrate L-pipecolic acid (Example 4); conditions: 10 mmol/L substrate, 30° C., 30 minutes; hydroxy-L-pipecolic acid-producing activity set to 100
Protocol: (§1) The detection of the products was based on the absorbance at a wavelength of 340 nm.
(§2) The activity values were evaluated by the amount of a product per gram of total protein (U/g-protein).

[2] = Catalytic efficiency (kcat/Km) of L-pipecolic acid hydroxylases with L-pipecolic acid (Example 3); format: biochemical; conditions: in words
[3] = Reactivity comparison of L-pipecolic acid 5-hydroxylases, substrate L-proline (Example 4); conditions: for Relative activity, Substrate: L-proline (hydroxy-L-proline-producing activity, 100 = hydroxy-L-pipecolic acid-producing activity): 10 mmol/L substrate, 30° C., 30 minutes; for hydroxy-L-proline detected from the reaction solution: Example 4, 10 mmol/L L-proline, in words
Protocol: as §1, §2

[4] = Production of hydroxy-L-pipecolic acids by culture of recombinant E. coli expressing the hydroxylase (Example 5); format: cell-based, E. coli BL21 (DE3); conditions: for Accumulation of (4S)-hydroxy-L-proline: 120 hours; for Accumulation amount of (4S)-hydroxy-L-proline / Accumulation amount of (5S)-Hydroxy-L-pipecolic acid / Accumulation amount of L-pipecolic acid: after 120 hours, 20 mmol/L L-pipecolic acid in medium, 30° C.
[5] = Catalytic efficiency (kcat/Km) of L-pipecolic acid hydroxylases with L-proline (Example 3); format: biochemical; conditions: for hydroxy-L-proline detected from the reaction solution: L-proline as substrate, Example 3, in words
Protocol: Each of the obtained recombinant E. coli strains in a volume of 0.6 mL was recovered by centrifugation and was suspended in 0.5 mL of 50 mmol/L MES (2-morpholinoethanesulfonic acid) buffer at pH 6. The container containing the suspension was placed in ice-water bath to perform sonication and then spun at 12,000 rpm. The obtained supernatant was used as an enzyme solution in Example 3.
Subsequently, 0.05 mL of 1 mol/L hydrochloric acid was added to stop the reaction.
The reaction using L-proline as a substrate was carried out under the same conditions as in the above reaction using L-pipecolic acid.
Then, each reaction solution was treated using 1-fluoro-2,4-dinitrophenyl-5-L-alaninamide (FDAA) (manufactured by Tokyo Chemical Industry Co., Ltd.) according to a method as described below, to obtain a FDAA-derivative of a hydroxy-L-pipecolic acid or hydroxy-L-proline included in each reaction solution.
To the reaction solution after stopping the reaction, 0.05 mL of 1 mol/L sodium hydroxide was added for neutralization. After centrifuging the solution at 12,000 rpm, 15 μL of 0.5 mol/L borate buffer (pH 9) was added to 15 μL of the obtained supernatant, followed by further addition of 30 μL of 20 mmol/L FDAA solution in acetone and incubation at 40° C. for one hour. Subsequently, 10 μL of 1 mol/L hydrochloric acid was added to stop the derivatization reaction. The resulting solution was diluted by adding 80 μL of methanol, and then centrifuged at 12,000 rpm. The obtained supernatant was used as a FDAA derivative solution.
The amount of produced hydroxy-L-pipecolic acid or hydroxy-L-proline was analyzed with UPLC-MS (manufactured by Waters Co.).
An aliquot containing 5 μg of total protein was taken from each enzyme solution obtained in Example 2, loaded on each lane, and then electrophoresed on polyacrylamide gel. The obtained electrophoretogram was analyzed using the image analysis software Image Lab3.0 (manufactured by Bio-Rad Laboratories, Inc.) to determine the content of each hydroxylase. A carbonic anhydrase (manufactured by Sigma-Aldrich Co. LLC) was used as a quantification reference. The content of a hydroxylase of interest was calculated from the signal intensity of the enzyme of interest, based on the signal intensities of bands corresponding to 200 ng, 400 ng and 600 ng of the quantification reference provided for the electrophoresis.
The catalytic efficiency of each enzyme was calculated based on the Michaelis-Menten kinetic equation.
It is known that, in FIG. 1, the reciprocal of each intercept with the x-axis, multiplied with −1, represents a km value (mmol/L) and the reciprocal of each intercept with the y-axis represents a Vmax value (U/mg), the maximum rate of reaction.
The catalytic ability per molecule of the enzyme (kcat) can be calculated from the Vmax and the molecular weight of the enzyme. Table 5 indicates the result of the calculation of catalytic efficiency (kcat/km), which is an index representing the catalytic ability of an enzyme, based on the obtained kcat and km values.

[6] = 5-hydroxy-L-pipecolic acid-producing activity of McPH mutants (Example 6); format: biochemical; conditions: for Relative activity (5-hydroxy-L-pipecolic acid-producing activity, wild type = 100): Table 10, double and triple mutants
Excerpt: Each of the obtained plasmids was used to transform E. coli (Eschelichia coli) BL21 (DE3) (manufactured by Invitrogen) according to a conventional method and thus to obtain recombinant E. coli strains expressing the respective mutants.
Furthermore, the combination effect of the respective mutations was examined in the mutations corresponding to McPHm2, McPHm3, and McPHm9, each of which was effective to improve the activity. A plasmid expressing a double mutant (McPHm10) with substitutions of phenylalanine to tyrosine at position 5 and cysteine to alanine at position 23, and a plasmid expressing a triple mutant, which is derived from the double mutant and further has a substitution of aspartic acid to glutamic acid at position 282, were constructed. Then, recombinant E. coli strains were produced according to the method described above, and the resulting enzyme solutions were used to evaluate the 5-hydroxy-L-pipecolic acid-producing activity.

[7] = Hydroxylation activity of McPH mutants with L-proline as substrate (Example 6); format: biochemical; conditions: method of Example 4, in words

B1: CaPH: L-proline cis-4-hydroxylase from Catenulispora acidiphila NBRC102108, GenBank WP_012787640, SEQ ID NO: 6 (protein, listed as Catenulispora acidiphila)
chain: MRTQYVAALELDEGRLAKDLETSASFNYSEAYSNYLIGGPWKSAMLYSAGGDAGDGLLTDYDYRQSSDFTDYGRQMPYLQELISTSVDLSRLTFVRLARFAKSVIVPHRDFLELEEIPEDKRSAHRLHIPLATHEECFFSEDNVVYRMRAGELWYFDASRIHSVVSFAEEPRIHLIFDFADRPGAGSLVTVPGEPEGAGVPAASAVDRPQLSDAERAALARLADVLTMDTFSEIFSVLVKKHFRRDGGEHFVWDTLTALARACPDPAVLPHTQELRRYFTLERPSGSGQA
Relative activity, Substrate: L-pipecolic acid [1]: 100% | Activity, Substrate: L-pipecolic acid (cell spanning Km to kcat/Km) [2]: (No activity ) | Relative activity, Substrate: L-proline (hydroxy-L-proline-producing activity, 100 = hydroxy-L-pipecolic acid-producing activity) [3]: 583% | hydroxy-L-proline detected from the reaction solution [3]: much amount of hydroxy-L-proline was detected | Accumulation of (4S)-hydroxy-L-proline ([4]; in words): no accumulation of (4S)-hydroxy-L-proline is confirmed | Accumulation amount of (4S)-hydroxy-L-proline [4]: 0 mmol/L | Accumulation amount of (5S)-Hydroxy-L-pipecolic acid [4]: 0.8 mmol/L | Accumulation amount of L-pipecolic acid [4]: 18.8 mmol/L | hydroxy-L-proline detected from the reaction solution [5]: much amount of hydroxy-L-proline was detected

B2: McPH: amino acid hydroxylase from Micromonospora chokoriensis, GenBank WP_030487089, SEQ ID NO: 2 (protein, listed as Micromonospora chokoriensis)
chain: MRTHFVGEVALDLARLEADLATCRSLEWSEAYSDYVFGGSWKSCMLWAPGGDAGDGVVTDYAYDRSAGFTPHAERLPYLAELIRETADLDRLNFARLALVTNSVIIPHRDLLELSDLPDEARNEHRMHIPLATNDNCFFNEDNVVYRMRRGEVWFLDASRIHSVAVLTAQPRIHLMLDFVDTPGAGSFTRVAGGGVEAGIPVDRIVTRPPLGDDERADLFGVAPLLSMDTFDEVFSIVIKKHFRRDGGSDFVWDTMLELAAKSPDPAVLPHTEELRKHYTLDRSA
Relative activity, Substrate: L-pipecolic acid [1]: 100% | Relative activity, Substrate: L-proline (hydroxy-L-proline-producing activity, 100 = hydroxy-L-pipecolic acid-producing activity) [3]: 0% | hydroxy-L-proline detected from the reaction solution [3]: No hydroxy-L-proline was detected | Accumulation of (4S)-hydroxy-L-proline ([4]; in words): No accumulation of (4S)-hydroxy-L-proline was confirmed | Accumulation amount of (4S)-hydroxy-L-proline [4]: 0 mmol/L | Accumulation amount of (5S)-Hydroxy-L-pipecolic acid [4]: 23.5 mmol/L | Accumulation amount of L-pipecolic acid [4]: 1.8 mmol/L | Conversion of the substrate to (5S)-hydroxy-L-pipecolic acid ([4]; incubation for 120 hours, in words): almost the entire amount of the substrate was allowed to convert to (5S)-hydroxy-L-pipecolic acid | hydroxy-L-proline detected from the reaction solution [5]: no hydroxy-L-proline was detected | Activity, Substrate: L-proline (cell spanning Km to kcat/Km) ([5]; in words): (No activity ) | Relative activity (5-hydroxy-L-pipecolic acid-producing activity, wild-type McPH = 100%) ([6]; Table 9, single mutants, U/g-protein basis, method of Example 4): 100% | Relative activity (5-hydroxy-L-pipecolic acid-producing activity, wild type = 100) [6]: 100

B3: McPHm11: McPH triple mutant F5Y, C23A, D282E; SEQ ID NO: 20 (protein, listed as Micromonospora chokoriensis)
chain: MRTHYVGEVALDLARLEADLATARSLEWSEAYSDYVFGGSWKSCMLWAPGGDAGDGVVTDYAYDRSAGFTPHAERLPYLAELIRETADLDRLNFARLALVTNSVIIPHRDLLELSDLPDEARNEHRMHIPLATNDNCFFNEDNVVYRMRRGEVWFLDASRIHSVAVLTAQPRIHLMLDFVDTPGAGSFTRVAGGGVEAGIPVDRIVTRPPLGDDERADLFGVAPLLSMDTFDEVFSIVIKKHFRRDGGSDFVWDTMLELAAKSPDPAVLPHTEELRKHYTLERSA
Hydroxylation activity with L-proline as substrate [7]: virtually no activity against proline | Relative activity (5-hydroxy-L-pipecolic acid-producing activity, wild type = 100) [6]: 314 | Activity compared with that of the wild-type enzyme ([6]; in words): three or more times higher
